2 molecules from patent US20260092084A1, “PEPTIDE AND ASSEMBLY OR COMPOSITION CONTAINING SAID PEPTIDE” (priority 2022, published 2026) can be followed below.

Square brackets hold non-standard residues; d marks the D form. Ends that are not written are not given here. * marks the point of attachment. pS = N[C@@H](COP(=O)(O)O)C(=O)O; Tfa = O=C(C(F)(F)F)*

The nature of series [1]: Pyrene fluorescence probing, critical aggregation concentration. The series is classed as physicochemical. As to conditions: pyrene probe 0.1 μM in PBS, 24 hours, room temperature; inflection point of FIG. 5. On the procedure:
Fluorescence probing has hitherto been widely used as a technique for measuring the critical micellar concentration (CMC) of a surfactant solution. When hydrophobic fluorescent molecules are added to an aqueous solution of a surfactant and excited, week fluorescence is generated from the fluorescent molecules dispersed in the solution under a state in which the concentration of the surfactant is low. Meanwhile, the concentration of the surfactant is more than the CMC, the hydrophobic fluorescent molecule is incorporated into a micelle surrounded by hydrophobic groups of the surfactant (hydrophobic environment) and emits strong fluorescence. In this experimental example, a change in fluorescent property with a change in peptide concentration was investigated by using pyrene as a fluorescence probe and using a peptide instead of the surfactant. […]
(3) One hundred fifty microliter of the reaction solution was transferred to each well of a plate (Non-Treated Black Polystyrene 96-well plate (Corning 3694)). […] The peak value of a fluorescence intensity (384 nm) was plotted against a peptide concentration (logarithmic value).
This increased fluorescence intensity means formation of a peptide assembly that provides a hydrophobic environment capable of encapsulating pyrene. […] The peptides of Examples 1-2 and 1-5 each had approximately the same fluorescence intensity up to 0.1 mM.

Series [2] can be described thus: Average particle diameter of peptide assembly by dynamic light scattering. In kind it is physicochemical. The following applies: 10 mM HEPES, 150 mM NaCl buffer (pH 7); 40 mM DMSO stock diluted 100-fold; stood overnight; 25° C.; main peak of scattering intensity. On the procedure:
5 mg of each of the peptides of Examples 1-1 to 1-5 and Reference Examples 1-1 to 1-8 was dissolved in dimethyl sulfoxide (DMSO) to provide a stock solution (40 mM). To a 10 mM HEPES and 150 mM NaCl buffer (pH 7) under stirring with a micromixer (E-36, Taitec Corporation), 4 μL of the stock solution was dropped to be diluted 100-fold. The dilution was vortexed and then left to stand still at room temperature overnight. Then, 200 μL of the dilution was used as a measurement sample and measurement of particle diameter distribution was performed at 25° C. by dynamic light scattering with Litesizer 500 (Anton Paar GmBH). The results determined by defining the main peak of a scattering intensity as the average particle diameter of an assembly are shown in Table 3. Provided that, when a polydispersity index was more than 20%, the main peak was determined with further reference to a volume-based particle diameter distribution.

Another series has as its target Arg-gingipain (Rgp). Briefly: SPR (Biacore T100); Rgp amine-coupled directly to CM5 chip; peptide as analyte at 25-1,600 nM. (In general: SPR reads the build-up and loss of mass on a sensor chip optically.)

For “DSpSEEKW-LLELLELL-RRK(Tfa)RR (DS[pS]EEKWLLELLELLRRK(Tfa)RR-NH2; N-terminus assumed; SMILES CC(C)C[C@H](NC(=O)[C@H](CC(C)C)NC(=O)[C@H](CCC(=O)O)NC(=O)[C@H](CC(C)C)NC(=O)[C@H](CC(C)C)NC(=O)[C@H](CCC(=O)O)NC(=O)[C@H](CC(C)C)NC(=O)[C@H](CC(C)C)NC(=O)[C@H](Cc1c[nH]c2ccccc12)NC(=O)[C@H](CCCCN)NC(=O)[C@H](CCC(=O)O)NC(=O)[C@H](CCC(=O)O)NC(=O)[C@H](COP(=O)(O)O)NC(=O)[C@H](CO)NC(=O)[C@@H](N)CC(=O)O)C(=O)N[C@@H](CCCNC(=N)N)C(=O)N[C@@H](CCCNC(=N)N)C(=O)N[C@@H](CCCCNC(=O)C(F)(F)F)C(=O)N[C@@H](CCCNC(=N)N)C(=O)N[C@@H](CCCNC(=N)N)C(N)=O) [Example 1-1]”, the “critical aggregation concentration (CAC)” value in series [1] came out at 50 µM. The molecule further returned an Average particle diameter in series [2] of 380 nm.
For RRKRR [Rgp-binding peptide A (RRKRR)], in the series with Arg-gingipain (Rgp), the Kd was 400 nM. In other words, the sub-micromolar range.

In general, Kd refers to the equilibrium constant for the complex coming apart. Low readings indicate tighter binding, high ones weaker binding.
